No end group written: not given here.
How the values were obtained:
[1] = target: T1, c-MAF (Q1): fragment of c-MAF including Aa 19-208 (Homo sapiens (Human), UniProt O75444 19-208); assay: SPR, Biacore T200, 25 C; antibody captured on Protein A, c-MAF (Q1) as analyte at 6.5 nM; single concentration fit, 1:1 model
T1 construct: Recombinant antigen preparation used in SPR; also called c-MAF fragment
T1 sequence: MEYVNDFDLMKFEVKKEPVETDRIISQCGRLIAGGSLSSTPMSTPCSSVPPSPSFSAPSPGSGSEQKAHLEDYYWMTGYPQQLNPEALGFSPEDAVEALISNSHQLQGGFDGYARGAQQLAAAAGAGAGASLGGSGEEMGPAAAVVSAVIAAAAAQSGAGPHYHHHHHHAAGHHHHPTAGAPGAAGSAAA
Protocol: Test measurements were conducted to confirm protein A-binding of the antibody INB-1-11-8 and to select appropriate capture levels for the kinetic measurements of the analyte. A capture level of 240 RU was chosen for the measurement with c-MAF (Q1), resulting in an expected Rmax of ca 64 RU for two 19.6 kDa antigens binding per antibody molecule. To generate sufficiently high binding signals for the peptide, a higher capture level of […] was chosen, also resulting in an expected Rmax of ca 30 RU. Serial dilutions of the antigen were injected for 180 s, followed by a 600 s buffer injection for off-rate determination (see FIG. 6). For the c-MAF fragment the molar concentrations used for the serial dilutions were calculated based on the concentrations determined by CFCA. The kinetic measurements were performed twice to confirm the binding behavior.
Based on this preliminary data, an affinity in the nM-range has been roughly estimated for the interaction. The binding is characterized by a very fast association rate and a fast dissociation rate, i.e. the binding is not very tight.

Peptide 1 (epitope …) = target: T2, Peptide 1 (epitope 83-EQKAHLEDYYWMTGYPQQ-100 of c-MAF of human origin) conjugated to BSA (human, also: conjugated to BSA); assay: antigen-specific ELISA: epitope peptide conjugated to BSA on the plate, anti-rabbit secondary antibody conjugated to alkaline phosphatase
T2 construct: also called antigen
T2 peptide: EQKAHLEDYYWMTGYPQQ
Protocol: An Antigen-specific ELISA was used to test the antibody sensitivity for the antigen. To this end, the epitope, Peptide 1, described above, was conjugated to BSA. This was attached to a the plate surface where the ELISA is performed and washed. The INB-1-11-8 c-MAF specific antibody was then applied so that it could bind to the antigen. Following, the incubation time and wash with TBST, a secondary antibody specific for rabbit antibodies and conjugated to Alkaline Phosphatase was used to score binding of the primary antibody to the antigen. Several dilutions were used to test the titer of the antibody, which is an indication of the affinity of the antibody for its antigen (FIG. 3A).

Kd [1]: 1.1 nM
koff [1]: 0.0056 s⁻¹
kon [1]: 5.3e+06 M⁻¹ s⁻¹
binding result (Peptide 1 (epitope …)): binds
B1: INB-1-11-8 c-MAF specific monoclonal antibody (rabbit) (antibody, V domains shown)
VH: QSLEESGGRLVTPGTPLTLTCTASGFSLNNYPMTWVRQAPGKGLDYIGVINNSGETAYATWAKRRFTISRTSTTLYLKIASPTIEDTATYFCARGGPVSSDMWGPGTLVIVSS
VL: AQVLTQTASPVSAVVGGTVTINCQSSQSVYRGDWLAWYQQRPGQPPKLLIYGASTLASGVPSRFKGSGSGTHFTLTISDLDCDDAATYYCAGGFSGHIYDFGGGTEVVVKG
notes: Rabbit monoclonal antibody; also called Clone ID11-8; antibody INB-1-11-8
